# Reference: PMC9482650, “Quantitative fragmentomics allow affinity mapping of interactomes” (Nature Communications, 2022)
# T1: SNTA1, Q13424
# T1 sequence (Q13424 82-180, limits assumed, looked up): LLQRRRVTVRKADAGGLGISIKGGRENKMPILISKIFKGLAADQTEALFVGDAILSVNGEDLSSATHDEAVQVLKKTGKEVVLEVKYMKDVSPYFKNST
# T2: SIPA1L2, Q9P2F8
# T2 sequence (Q9P2F8 945-1036, limits assumed, looked up): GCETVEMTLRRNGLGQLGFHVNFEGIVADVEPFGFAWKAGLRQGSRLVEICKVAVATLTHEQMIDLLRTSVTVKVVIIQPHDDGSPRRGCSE
# T3: GRIP1_3, Q9Y3R0
# T3 sequence (Q9Y3R0 247-346, limits assumed, looked up): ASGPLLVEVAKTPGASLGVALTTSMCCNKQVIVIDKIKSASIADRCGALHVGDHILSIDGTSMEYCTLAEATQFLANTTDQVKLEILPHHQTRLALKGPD
# T4: APBA2_1, Q99767
# T4 sequence (Q99767 563-664, limits assumed, looked up): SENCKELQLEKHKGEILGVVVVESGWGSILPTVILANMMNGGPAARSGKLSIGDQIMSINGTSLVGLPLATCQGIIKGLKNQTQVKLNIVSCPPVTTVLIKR
# T5: PDZD7_3, Q9H5P4
# T5 sequence (Q9H5P4 857-944, limits assumed, looked up): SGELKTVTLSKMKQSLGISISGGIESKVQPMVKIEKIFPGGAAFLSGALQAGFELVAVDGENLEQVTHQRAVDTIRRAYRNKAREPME
# T6: LNX2_2, Q8N448
# T6 sequence (Q8N448 334-432, limits assumed, looked up): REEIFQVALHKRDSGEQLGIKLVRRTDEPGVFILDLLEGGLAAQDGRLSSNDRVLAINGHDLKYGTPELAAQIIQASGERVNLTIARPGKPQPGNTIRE
# T7: GRIP1_2, Q9Y3R0
# T7 sequence (Q9Y3R0 145-248, limits assumed, looked up): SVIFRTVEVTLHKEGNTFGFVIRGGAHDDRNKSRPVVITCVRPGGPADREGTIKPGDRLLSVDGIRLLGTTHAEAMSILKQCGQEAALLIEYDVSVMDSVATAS
# T8: ARHGEF11, O15085
# T8 sequence (O15085 42-136, limits assumed, looked up): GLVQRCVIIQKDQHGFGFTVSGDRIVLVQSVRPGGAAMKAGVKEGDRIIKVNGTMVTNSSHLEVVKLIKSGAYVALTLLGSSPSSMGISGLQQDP
# T9: MPDZ_12, O75970
# T9 sequence (O75970 1857-1958, limits assumed, looked up): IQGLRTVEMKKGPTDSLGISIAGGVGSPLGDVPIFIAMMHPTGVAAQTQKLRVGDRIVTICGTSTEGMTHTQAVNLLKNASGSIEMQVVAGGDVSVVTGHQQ
# T10: GRIP1_4, Q9Y3R0
# T10 sequence (Q9Y3R0 467-571, limits assumed, looked up): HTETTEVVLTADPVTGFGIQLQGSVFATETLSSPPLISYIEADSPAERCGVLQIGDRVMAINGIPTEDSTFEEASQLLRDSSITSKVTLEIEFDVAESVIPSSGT
# T11: PTPN13_1, Q12923
# T11 sequence (Q12923 1088-1188, limits assumed, looked up): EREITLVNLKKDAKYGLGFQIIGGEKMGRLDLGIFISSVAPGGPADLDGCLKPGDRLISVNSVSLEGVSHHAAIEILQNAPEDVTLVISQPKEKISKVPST
# B1: CIB2, O75838 (peptide)
# chain: DFLSTFHIRI
# B2: FZD10, Q9ULW2 (peptide)
# chain: EIPAQSPTCV
# B3: SLC1A1, P43005 (peptide)
# chain: TISFTQTSQF
# Columns and labels:
# Assay in all cases: holdup assay
# Set-up in all cases: key: below the threshold = too weak to quantify, mostly under pKd 3.1 to 4
# Conditions in all cases: plain residues with an end cap or a label only (N-terminal biotin on a linker: ado-ado)
# SNTA1, Q13424 = biological target: T1, SNTA1, Q13424
# SIPA1L2, Q9P2F8 = biological target: T2, SIPA1L2, Q9P2F8
# GIPC2, Q8TF65 = biological target: GIPC2, Q8TF65
# LNX1_2, Q8TBB1 = biological target: LNX1_2, Q8TBB1
# GRIP1_3, Q9Y3R0 = biological target: T3, GRIP1_3, Q9Y3R0
# APBA2_1, Q99767 = biological target: T4, APBA2_1, Q99767
# PDLIM1, O00151 = biological target: PDLIM1, O00151
# Inadl_3, Q8NI35 = biological target: Inadl_3, Q8NI35
# DLG2_3, Q15700 = biological target: DLG2_3, Q15700
# Inadl_1, Q8NI35 = biological target: Inadl_1, Q8NI35
# MAST2, Q6P0Q8 = biological target: MAST2, Q6P0Q8
# PDZD7_3, Q9H5P4 = biological target: T5, PDZD7_3, Q9H5P4
# DLG2_2, Q15700 = biological target: DLG2_2, Q15700
# LDB3, O75112 = biological target: LDB3, O75112
# ARHGEF12, Q9NZN5-2 = biological target: ARHGEF12, Q9NZN5-2
# SCRIB_1, Q14160 = biological target: SCRIB_1, Q14160
# LNX2_2, Q8N448 = biological target: T6, LNX2_2, Q8N448
# PICK1, Q9NRD5 = biological target: PICK1, Q9NRD5
# GRIP1_2, Q9Y3R0 = biological target: T7, GRIP1_2, Q9Y3R0
# ARHGEF11, O15085 = biological target: T8, ARHGEF11, O15085
# GOPC, Q9HD26 = biological target: GOPC, Q9HD26
# HTRA2, O43464 = biological target: HTRA2, O43464
# MPDZ_12, O75970 = biological target: T9, MPDZ_12, O75970
# Inadl_4, Q8NI35 = biological target: Inadl_4, Q8NI35
# GRIP2_7, Q9C0E4 = biological target: GRIP2_7, Q9C0E4
# GRIP1_4, Q9Y3R0 = biological target: T10, GRIP1_4, Q9Y3R0
# PTPN13_1, Q12923 = biological target: T11, PTPN13_1, Q12923
# GIPC2, Q8TF65, sequence (Q8TF65 112-203): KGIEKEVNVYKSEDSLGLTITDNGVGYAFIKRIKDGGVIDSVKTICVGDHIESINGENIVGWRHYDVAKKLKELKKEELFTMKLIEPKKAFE
# MAST2, Q6P0Q8, sequence (Q6P0Q8 1099-1202): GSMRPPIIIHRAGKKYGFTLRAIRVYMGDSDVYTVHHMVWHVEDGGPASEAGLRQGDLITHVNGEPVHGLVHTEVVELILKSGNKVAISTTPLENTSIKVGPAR
# Inadl_1, Q8NI35, sequence (Q8NI35 113-229): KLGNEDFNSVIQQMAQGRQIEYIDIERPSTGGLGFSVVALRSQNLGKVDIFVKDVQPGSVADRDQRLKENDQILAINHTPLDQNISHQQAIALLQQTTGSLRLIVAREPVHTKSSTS
# HTRA2, O43464, sequence (O43464 355-458): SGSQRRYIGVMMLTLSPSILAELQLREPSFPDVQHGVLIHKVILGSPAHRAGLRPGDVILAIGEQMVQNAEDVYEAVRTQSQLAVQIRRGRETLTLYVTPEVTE
# PDLIM1, O00151, sequence (O00151 1-87): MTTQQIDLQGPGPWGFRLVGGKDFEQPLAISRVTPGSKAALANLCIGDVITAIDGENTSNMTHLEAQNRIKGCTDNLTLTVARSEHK
# Inadl_3, Q8NI35, sequence (Q8NI35 359-469): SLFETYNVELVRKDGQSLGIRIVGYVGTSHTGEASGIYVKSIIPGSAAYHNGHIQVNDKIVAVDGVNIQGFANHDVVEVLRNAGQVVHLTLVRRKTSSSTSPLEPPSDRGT
# ARHGEF12, Q9NZN5-2, sequence (Q9NZN5 other isoform, or with tags, fused parts or gaps): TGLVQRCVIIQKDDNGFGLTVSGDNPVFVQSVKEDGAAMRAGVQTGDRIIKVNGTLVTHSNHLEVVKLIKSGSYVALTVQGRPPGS
# GRIP2_7, Q9C0E4, sequence (Q9C0E4 934-1023): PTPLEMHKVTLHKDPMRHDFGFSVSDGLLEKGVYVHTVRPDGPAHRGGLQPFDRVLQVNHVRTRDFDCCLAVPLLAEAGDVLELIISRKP
# LDB3, O75112, sequence (O75112 1-94): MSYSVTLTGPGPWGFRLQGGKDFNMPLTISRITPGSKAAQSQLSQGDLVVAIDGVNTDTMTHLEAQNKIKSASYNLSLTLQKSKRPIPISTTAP
# SCRIB_1, Q14160, sequence (Q14160 718-814): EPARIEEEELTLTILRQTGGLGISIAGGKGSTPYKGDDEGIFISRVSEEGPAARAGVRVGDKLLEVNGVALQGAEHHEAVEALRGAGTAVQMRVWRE
# Inadl_4, Q8NI35, sequence (Q8NI35 547-651): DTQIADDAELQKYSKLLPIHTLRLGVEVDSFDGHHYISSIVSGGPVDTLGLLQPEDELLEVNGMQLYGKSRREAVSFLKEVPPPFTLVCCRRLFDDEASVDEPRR
# PICK1, Q9NRD5, sequence (Q9NRD5 17-115): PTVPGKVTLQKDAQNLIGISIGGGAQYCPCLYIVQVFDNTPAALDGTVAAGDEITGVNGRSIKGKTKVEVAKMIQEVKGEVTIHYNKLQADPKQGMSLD
# LNX1_2, Q8TBB1, sequence (Q8TBB1 371-470): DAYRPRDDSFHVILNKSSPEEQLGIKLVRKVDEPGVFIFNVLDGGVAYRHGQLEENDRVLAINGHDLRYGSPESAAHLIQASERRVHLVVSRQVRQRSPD
Binder,"pKd (SNTA1, Q13424)","pKd (SIPA1L2, Q9P2F8)","pKd (GIPC2, Q8TF65)","pKd (LNX1_2, Q8TBB1)","pKd (GRIP1_3, Q9Y3R0)","pKd (APBA2_1, Q99767)","pKd (PDLIM1, O00151)","pKd (Inadl_3, Q8NI35)","pKd (DLG2_3, Q15700)","pKd (Inadl_1, Q8NI35)","pKd (MAST2, Q6P0Q8)","pKd (PDZD7_3, Q9H5P4)","pKd (DLG2_2, Q15700)","pKd (LDB3, O75112)","pKd (ARHGEF12, Q9NZN5-2)","pKd (SCRIB_1, Q14160)","pKd (LNX2_2, Q8N448)","pKd (PICK1, Q9NRD5)","pKd (GRIP1_2, Q9Y3R0)","pKd (ARHGEF11, O15085)",other results
B1,below the threshold,below the threshold,below the threshold,below the threshold,below the threshold,below the threshold,below the threshold,4.49,below the threshold,3.91,4.68,below the threshold,below the threshold,below the threshold,below the threshold,below the threshold,3.74,below the threshold,below the threshold,3.64,"pKd (GOPC, Q9HD26): below the threshold; pKd (HTRA2, O43464): 3.5; pKd (MPDZ_12, O75970): below the threshold; pKd (Inadl_4, Q8NI35): below the threshold; pKd (GRIP2_7, Q9C0E4): 4.04; pKd (GRIP1_4, Q9Y3R0): 3.9; pKd (PTPN13_1, Q12923): below the threshold"
B2,3.83,3.69,3.74,4.13,below the threshold,below the threshold,3.68,3.62,below the threshold,3.58,4.01,4.3,3.89,below the threshold,3.91,3.81,5.04,3.51,3.67,4.2,"pKd (GOPC, Q9HD26): 3.94; pKd (HTRA2, O43464): 3.76; pKd (MPDZ_12, O75970): below the threshold; pKd (Inadl_4, Q8NI35): 3.64; pKd (GRIP2_7, Q9C0E4): 3.7; pKd (GRIP1_4, Q9Y3R0): 3.64; pKd (PTPN13_1, Q12923): 3.72"
B3,below the threshold,below the threshold,below the threshold,below the threshold,below the threshold,below the threshold,below the threshold,below the threshold,3.71,below the threshold,4.89,below the threshold,below the threshold,3.58,3.79,3.5,below the threshold,below the threshold,below the threshold,3.79,"pKd (GOPC, Q9HD26): below the threshold; pKd (HTRA2, O43464): below the threshold; pKd (MPDZ_12, O75970): below the threshold; pKd (Inadl_4, Q8NI35): below the threshold; pKd (GRIP2_7, Q9C0E4): below the threshold; pKd (GRIP1_4, Q9Y3R0): below the threshold; pKd (PTPN13_1, Q12923): below the threshold"
